Measurements as given in US20160000891A1.

Target: PF-4 in cynomolgus plasma (cynomolgus)
Test: aligned sandwich ELISA, cynomolgus plasma

- AUC Ratio (vs anti-HPF4): 1
- anti-HPF4 AUC mean: 2.79
Substance: monoclonal anti-HPF4 antibody (Abcam cat. no.: ab49735)
